Results as given in US20200040085A1 (Chugai, published 2020).

T1: recombinant HLA-DQ8/gliadin peptide (human)
T1 chain 1: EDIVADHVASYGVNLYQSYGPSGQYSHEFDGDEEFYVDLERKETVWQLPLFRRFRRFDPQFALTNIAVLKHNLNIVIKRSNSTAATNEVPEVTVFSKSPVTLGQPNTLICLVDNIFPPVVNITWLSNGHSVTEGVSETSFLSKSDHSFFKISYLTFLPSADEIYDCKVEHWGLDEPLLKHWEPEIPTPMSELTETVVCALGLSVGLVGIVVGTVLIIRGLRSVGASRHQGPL
T1 chain 2: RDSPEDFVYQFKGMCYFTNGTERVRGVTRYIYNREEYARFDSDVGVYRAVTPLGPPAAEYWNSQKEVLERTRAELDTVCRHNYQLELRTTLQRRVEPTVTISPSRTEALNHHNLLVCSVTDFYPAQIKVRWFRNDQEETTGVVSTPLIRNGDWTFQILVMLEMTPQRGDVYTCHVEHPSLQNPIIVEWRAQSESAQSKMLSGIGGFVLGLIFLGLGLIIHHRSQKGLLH

T2: cynomolgus monkey MHC-DQ allele #1 (MHC DQA1*M2-1, MHC DQB1*M2-1) on Ba/F3 cells (cynomolgus monkey)
T2 construct: also called Ba/F3-cynoDQ C1; cynoDQ C1
T2 MHC II alpha: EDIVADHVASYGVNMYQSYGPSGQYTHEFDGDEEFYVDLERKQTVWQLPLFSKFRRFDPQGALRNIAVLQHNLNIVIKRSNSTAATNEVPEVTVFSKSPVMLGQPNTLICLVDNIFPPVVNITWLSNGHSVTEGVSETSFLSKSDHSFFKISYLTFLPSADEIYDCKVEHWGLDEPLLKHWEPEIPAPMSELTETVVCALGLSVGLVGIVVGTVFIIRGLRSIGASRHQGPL
T2 MHC II beta: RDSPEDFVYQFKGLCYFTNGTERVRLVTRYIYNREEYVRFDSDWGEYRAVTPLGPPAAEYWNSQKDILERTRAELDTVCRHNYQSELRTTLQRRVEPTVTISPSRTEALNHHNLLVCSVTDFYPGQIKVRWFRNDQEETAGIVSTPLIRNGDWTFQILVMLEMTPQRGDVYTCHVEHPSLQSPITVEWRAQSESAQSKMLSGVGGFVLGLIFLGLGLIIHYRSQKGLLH

T3: HLA-DQ8 (HLA-DQA1*0301, HLA-DQB1*0302) on Ba/F3 cells (human, UniProt P01909 24-216; P01920 33-230, limits assumed)
T3 construct: whole, on cells; Expressed from cDNA in mouse Ba/F3 cells; also called Ba/F3-HLA-DQ8
T3 MHC II alpha: not shown
T3 MHC II beta: not shown

B1: DQN0089 (antibody, human IgG1, kappa, V domains shown)
VH: QEQVVEYGGDLVQPEGSLTLTCKASGLDFSSTYYMCWVRQAPGKGLEWIGCIYGGSSDSTYYASWAKGRFTISKTSPTTVTLQMTSLTAADTATHFCATYDYGAVGYDLWGPGTLVTVSS
VL: EVVVTQTPASVEVAVGGTVTIKCQASQNISPYLSWYQQKPGQPPKLLIYKASTLASGVSSRFKGSGSGTQFTLTISDLECADAATYYCQNNYGVSINYGHTFGGGTKVEIKR
B2: DQN0016 (antibody, human IgG1, kappa, V domains shown)
VH: QSLEESGGDLVKPGASLTLTCTASGFSFSSRYWMCWVRQAPGKGLEWIACIDAGSSGITYYASWANGRFTISKTSSTTVTLQMTSLTAADTATYFCARDAWSTTDGWNTFNLWGPGTLVTVSS
VL: DVVMTQTPASVSAAVGGTVTIKCQASQSIGSNLNWYQQKPGQSPKLLIYSASTLASGVPSRFKGSGSGTEYTLTISNLECADAATYYCQSYYYTGSSAVNNFGGGTKVEIKR
notes: Rabbit B-cell derived variable regions recombined with F1332m heavy and hkOMC light constant regions; expressed in FreeStyle 293-F cells; also called DQN0016cc
B3: DQN0100 (antibody, human IgG1, kappa, V domains shown)
VH: QQQLEESGGGLVKPGASLTLTCKGSGFSFTSGYWICWVRQAPGKGLEWIGCIYTGSSGSTYYASWAKGRFTISRSSTTVTLQMTSLTVADTATYFCAGDPSGASSGWDNLWGPGTLVTVSS
VL: AFELTQTPSSVEAAVGGTVTIKCQASQTIVSWLAWYQQKPGQRPKLLILYASNLASGVSSRFRGSGSGTDYTLTISDLECDDAATYYCQSYYFSTSSPDMYAFGGGTKVEIKR
notes: Rabbit variable regions with F1332m and hkOMC constant regions; also called DQN0100aa
B4: DQN0139 (antibody, human IgG1, kappa, V domains shown)
VH: QSLEESGGRLVTPGTALTLTCTVSGFSLSSYAMGWVRQAPGKGLEYIGWTSPGDSAYYASWTKGRFTISRTSTTVELKITSPTTEDTATYFCARDAAYIGHWAFNLWGPGTLVTVSS
VL: DVVMTQTPASVSAPVGGTVTINCQASESIYSNLAWYQQKPGQPPKLLIYGASTLESGVPSRVKGSGYGTQFTLTISDLECADAATYYCQQYYGSSSTAFTFGGGTKVEIKR
notes: also called DQN0139bb
B5: DQN0157 (antibody, human IgG1, kappa, V domains shown)
VH: QSLEESGGDLVKPGASLTLTCTASGFSFSSSYYMCWVRQAPGKGLEWIACIYTGSSGSTYYPSWAKGRFTISKTSSTTVTLQMTSLTAADTATYFCARVRAGSGYYYFNLWGPGTLVTVSS
VL: DIVMTQTPSSVSAAVGGTVTIKCQASQTIYSGLAWYQQKPGQPPKLLIYDASDLASGVPSRFSGSGSGTEFTLAISGVQCDDAATYYCHGDYYGGSGTFFWTFGGGTKVEIKR
notes: Rabbit variable regions with F1332m and hkOMC constant regions; also called DQN0157cc
B6: DQN0092 (antibody, human IgG1, kappa, V domains shown)
VH: QSVEESGGRLVTPGTPLTLTCTVSGFSLSSYYISWVRQAPGKGLEWIGIIYTDGVTDYPNWAKGRFTISKTSTTVDLKITSPTTEDTATYFCARDAASVYGCGYFDLWGPGTLVTVSS
VL: TFKLTQTPASVEAAVGGTVTIKCQASESNGNALAWYQQKPGQPPKLLIYRAFTLASGVPSRLKGSGSGTQFALTISDLECADAATYYCQTYYGSNTDFNAFGGGTKVEIKR
notes: Rabbit variable regions with F1332m and hkOMC constant regions; also called DQN0092hh
B7: DQN0177 (antibody, human IgG1, kappa, V domains shown)
VH: QSVEESGGRLVTPGTPLTLTCTVSGFSLSSYAMSWVRQAPGKGLEWIGVISYSGRTYDASWAKGRFTISKTSTTVDLKITSPTTEDTATYFCARVGDSYGYAYATVIFTYHFNLWGPGTLVTVSS
VL: DPVLTQTPSSASEPVGGTVTIKCQASESISSSLAWYQQKPGQRPKLLIYDASKLASGVPSRFKGSGSGTEFTLTISGVQCDDAATYYCQHGLSSGSTNRCAFGGGTKVEIKR
notes: also called DQN0177aa

Experiments:
[1] = target: complex of the invariant chain and HLA-DQ on Raji cells (UniProt P04233 1-296); experiment: cell-based or functional assay
[2] = target: T1, recombinant HLA-DQ8/gliadin peptide; experiment: bead-based flow cytometry: HLA-DQ8/gliadin peptide on beads, antibody titrated, blocking of SP3.4 TCR-PE binding [panel DQ8/SP3.4 TCR neutralization]
Description: Streptavidin-coated yellow particles (Spherotech, SVFB-2552-6K) were incubated in blocking buffer (2% BSA in PBS) for 30 minutes with shaking at room temperature. After centrifugation and aspiration of the supernatant, 0.167 micro g/mL of soluble […] was then added as 1.2E+4 beads/micro L solution and immobilized for 60 minutes with shaking at room temperature in 96 well plates (Sigma Aldrich, Cat No. M2686). […] The final concentration of HLA-DQ8/gliadin peptide was 0.075 micro g/mL. The plates were washed with blocking buffer, and serially diluted anti-HLA-DQ2.5/8 antibodies were added and incubated for 60 minutes with shaking at room temperature. […] Data acquisition was performed on LSR Fortessa (Becton Dickinson), followed by analysis using the FlowJo software (Tree Star) and the GraphPad Prism software (GraphPad).

[3] = target: T1, recombinant HLA-DQ8/gliadin peptide; experiment: SPR Biacore T200, 37 C, pH 7.4; antibody captured by anti-human Fc, pMHC injected; 1:1 model
Description: The affinity of the anti-HLA-DQ2.5/8 antibodies for binding to human HLA-DQ2.5/gliadin peptide and HLA-DQ8/gliadin peptide at pH 7.4 was determined at 37 degrees C. using the Biacore T200 instrument (GE Healthcare). Anti-human Fc (GE Healthcare) was immobilized onto all flow cells of a CM4 sensor chip using an amine coupling kit (GE Healthcare). All antibodies and analytes were prepared in ACES, pH 7.4 containing 20 mM ACES, 150 mM NaCl, 0.05% Tween 20, 0.005% NaN₃. Each antibody was captured onto the sensor surface by anti-human Fc. Antibody capture levels were aimed at 200 resonance units (RUs). A recombinant human HLA-DQ2.5/gliadin peptide was injected at […] prepared by four-fold serial dilution, followed by dissociation, whereas a recombinant human HLA-DQ8/gliadin peptide was injected at 50 to 200 nM prepared by four-fold serial dilution, followed by dissociation. The sensor surface was regenerated each cycle with 3M MgCl₂. Binding affinity was determined by processing and fitting the data to a 1:1 binding model using the Biacore T200 Evaluation software, version 2.0 (GE Healthcare). A commercially available antibody (SPV-L3) was tested as comparison.

[4] = target: T2, cynomolgus monkey MHC-DQ allele #1 (MHC …); experiment: FACS on Ba/F3-cynoDQ C1 cells, PE-labelled anti-human IgG secondary [panel Ba/F3-cynoDQ C1]
Description: (§1) Binding of antiHLA-DQ2.5/8 antibodies to HLA-DQ2.5-expressing Ba/F3 cells (Ba/F3-HLA-DQ2.5), Ba/F3-HLA-DQ8, Ba/F3-HLA-DR, Ba/F3-HLA-DP, Ba/F3-cynoDQ C1, Ba/F3-cynoDQ C2, and Ba/F3-cynoDQ C3 was tested.
(§2) Anti-HLA-DQ2.5/8 antibodies were incubated with each cell line for 30 minutes at room temperature and washed with FACS buffer (2% FBS, 2 mM EDTA in PBS). Goat F(ab′)2 anti-Human IgG, Mouse ads-PE (Southern Biotech, Cat. 2043-09) was then added and incubated for 20 minutes at 4 degrees C. and washed with FACS buffer. Data acquisition was performed on an FACS Verse (Becton Dickinson), followed by analysis using the FlowJo software (Tree Star) and the GraphPad Prism software (GraphPad).

[5] = target: T4, HLA-DQ2.5 (HLA-DQA1*0501, HLA-DQB1*0201) on Ba/F3 cells (human, UniProt P01909 24-216, limits assumed); experiment: FACS on Ba/F3-HLA-DQ2.5 cells
T4 construct: whole, on cells; Expressed from cDNA in mouse Ba/F3 cells; also called Ba/F3-HLA-DQ2.5
Description: as §1, §2

[6] = target: T3, HLA-DQ8 (HLA-DQA1*0301, HLA-DQB1*0302) …; experiment: FACS on Ba/F3-HLA-DQ8 cells
Description: as §1, §2

Chain of complex of the invariant chain and HLA-DQ on Raji cells (P04233 whole entry, change not shown, one chain of several): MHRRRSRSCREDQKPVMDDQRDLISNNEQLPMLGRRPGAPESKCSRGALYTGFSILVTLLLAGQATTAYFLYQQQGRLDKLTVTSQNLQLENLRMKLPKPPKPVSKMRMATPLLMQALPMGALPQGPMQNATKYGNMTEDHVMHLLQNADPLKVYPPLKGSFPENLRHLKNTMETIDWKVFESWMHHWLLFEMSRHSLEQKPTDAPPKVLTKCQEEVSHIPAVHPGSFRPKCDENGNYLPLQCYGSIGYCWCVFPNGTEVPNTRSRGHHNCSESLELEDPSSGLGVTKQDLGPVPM

| Binder | ratio [MFI (PE/FITC) without Cytochalasin D, Dynasore]/[MFI (PE/FITC) with Cytochalasin D, Dynasore] on Raji cells (invariant chain-mediated internalization) [1] | IC50 (read off the curve) [2] | Kd [3] | koff [3] | kon [3] | binding result [4] | binding result [5] | binding result [6] |
| --- | --- | --- | --- | --- | --- | --- | --- | --- |
| B1 | ~3 |  |  |  |  |  |  |  |
| B2 |  | ~0.2 µg/mL | 151 nM |  |  |  |  |  |
| B3 |  | ~0.1 µg/mL | 1.94 nM | 0.000458 s⁻¹ | 236000 M⁻¹ s⁻¹ |  |  |  |
| B4 |  | ~0.3 µg/mL | 11.3 nM |  |  |  |  |  |
| B5 |  | ~0.1 µg/mL | 22.6 nM | 0.0033 s⁻¹ | 146000 M⁻¹ s⁻¹ | no binding |  |  |
| B6 |  |  | 7.28 nM | 0.00122 s⁻¹ | 168000 M⁻¹ s⁻¹ | no binding | binds | binds |
| B7 |  |  | 3.67 nM | 0.00137 s⁻¹ | 374000 M⁻¹ s⁻¹ |  |  |  |
